For the experiment, the target named is PTP1B catalytic domain, inactive C215S mutant (1-229 as printed) (human) (UniProt P18031). Kind of experiment: fluorescence polarisation; competitive titration: labelled CF-ppIRS1 and protein both fixed (50-80% saturation), unlabelled competitor peptide varied; triplicates; Kd from cubic fit. On the technique in general: Fluorescence polarisation rises when a labelled molecule tumbles more slowly, as on binding a larger partner.
Sequence of PTP1B catalytic domain, inactive C215S mutant (1-229 as printed) (human) (P18031 1-229 C215S): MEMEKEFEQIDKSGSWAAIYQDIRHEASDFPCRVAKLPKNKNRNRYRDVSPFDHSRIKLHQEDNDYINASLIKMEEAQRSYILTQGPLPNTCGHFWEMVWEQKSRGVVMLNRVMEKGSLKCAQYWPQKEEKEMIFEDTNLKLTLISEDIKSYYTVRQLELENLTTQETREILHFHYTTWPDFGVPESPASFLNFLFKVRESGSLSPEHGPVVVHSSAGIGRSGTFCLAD

Substance “ppIRS1, IRS1 peptide dually phosphorylated (pY632 + pS636)” had a fold increase of binding over p0IRS1 of 19 fold.
In turn, “ppCD28, CD28 peptide dually phosphorylated (pY191 + pT195)” displayed a fold increase of binding over p0CD28 of 2 fold.

The record behind these values is paper PMC9481563, “Structural insights into the pSer/pThr dependent regulation of the SHP2 tyrosine phosphatase in insulin and CD28 signaling” (Nature Communications, 2022).
